Assay results published in article PMC2804221.

Experiments:
[1] = target: GLP-1 receptor E68A (human) (UniProt P43220)
[2] = target: GLP-1 receptor T35A (human) (UniProt P43220)
[3] = target: GLP-1 receptor P90A (human) (UniProt P43220)
[4] = target: GLP-1 receptor E128Q (human) (UniProt P43220)
[5] = target: GLP-1 receptor L123A (human) (UniProt P43220)
[6] = target: GLP-1 receptor L32A (human) (UniProt P43220)
[7] = target: GLP-1 receptor E127A (human) (UniProt P43220)
[8] = target: GLP-1 receptor R121A (human) (UniProt P43220)
GLP-1 receptor R121A (human), sequence (P43220 24-463 R121A): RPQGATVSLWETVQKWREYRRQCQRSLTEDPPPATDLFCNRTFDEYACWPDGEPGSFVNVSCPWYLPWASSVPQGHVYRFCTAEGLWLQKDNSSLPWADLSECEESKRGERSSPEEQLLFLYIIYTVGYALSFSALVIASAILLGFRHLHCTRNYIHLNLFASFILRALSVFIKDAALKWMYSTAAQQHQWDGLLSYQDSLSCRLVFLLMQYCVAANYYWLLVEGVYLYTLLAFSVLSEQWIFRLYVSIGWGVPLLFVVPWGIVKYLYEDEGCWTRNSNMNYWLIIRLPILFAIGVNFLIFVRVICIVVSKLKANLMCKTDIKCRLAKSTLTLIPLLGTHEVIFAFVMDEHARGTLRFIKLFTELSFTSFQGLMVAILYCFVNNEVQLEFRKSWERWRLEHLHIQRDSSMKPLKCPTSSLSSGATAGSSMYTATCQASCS

[9] = target: Wild-type human GLP-1 receptor, full length (human) (UniProt P43220)
Wild-type human GLP-1 receptor, full length (human), sequence (P43220 24-463): as the sequence (P43220 24-463 R121A) above, with A98R counted along it

[10] = target: GLP-1 receptor V36A (human) (UniProt P43220)
GLP-1 receptor V36A (human), sequence (P43220 24-463 V36A): as the sequence (P43220 24-463 R121A) above, with V13A, A98R counted along it

[11] = target: GLP-1 receptor E128A (human) (UniProt P43220)
GLP-1 receptor E128A (human), sequence (P43220 24-463 E128A): as the sequence (P43220 24-463 R121A) above, with A98R, E105A counted along it

[12] = target: GLP-1 receptor E127Q (human) (UniProt P43220)
GLP-1 receptor E127Q (human), sequence (P43220 24-463 E127Q): as the sequence (P43220 24-463 R121A) above, with A98R, E104Q counted along it

[13] = target: GLP-1 receptor E68A (human) (UniProt P43220); test: radioligand binding
[14] = target: GLP-1 receptor T35A (human) (UniProt P43220); test: radioligand binding
[15] = target: GLP-1 receptor P90A (human) (UniProt P43220); test: radioligand binding
[16] = target: GLP-1 receptor E128Q (human) (UniProt P43220); test: radioligand binding
[17] = target: GLP-1 receptor L123A (human) (UniProt P43220); test: radioligand binding
[18] = target: GLP-1 receptor L32A (human) (UniProt P43220); test: radioligand binding
[19] = target: GLP-1 receptor E127A (human) (UniProt P43220); test: radioligand binding
[20] = target: GLP-1 receptor R121A (human) (UniProt P43220); test: radioligand binding
[21] = target: Wild-type human GLP-1 receptor, full length (human) (UniProt P43220); test: radioligand binding
[22] = target: GLP-1 receptor V36A (human) (UniProt P43220); test: radioligand binding
[23] = target: GLP-1 receptor E128A (human) (UniProt P43220); test: radioligand binding
[24] = target: GLP-1 receptor E127Q (human) (UniProt P43220); test: radioligand binding

GLP-1 receptor P90A (human), sequence (P43220 24-463 P90A): as the sequence (P43220 24-463 R121A) above, with P67A, A98R counted along it
GLP-1 receptor L32A (human), sequence (P43220 24-463 L32A): as the sequence (P43220 24-463 R121A) above, with L9A, A98R counted along it
GLP-1 receptor E68A (human), sequence (P43220 24-463 E68A): as the sequence (P43220 24-463 R121A) above, with E45A, A98R counted along it
GLP-1 receptor E128Q (human), sequence (P43220 24-463 E128Q): as the sequence (P43220 24-463 R121A) above, with A98R, E105Q counted along it
GLP-1 receptor E127A (human), sequence (P43220 24-463 E127A): as the sequence (P43220 24-463 R121A) above, with A98R, E104A counted along it
GLP-1 receptor T35A (human), sequence (P43220 24-463 T35A): as the sequence (P43220 24-463 R121A) above, with T12A, A98R counted along it
GLP-1 receptor L123A (human), sequence (P43220 24-463 L123A): as the sequence (P43220 24-463 R121A) above, with A98R, L100A counted along it

Exendin-4 (from UniProt P26349 48-87) (peptide)
EC50 of cAMP production, transiently transfected HEK293 cells [1]: 9.5 pM | EC50 of cAMP production, transiently transfected HEK293 cells [2]: 23 pM | EC50 of cAMP production, transiently transfected HEK293 cells [3]: 30 pM | EC50 of cAMP production, transiently transfected HEK293 cells [4]: 8 pM | EC50 of cAMP production, transiently transfected HEK293 cells [5]: 9.5 pM | EC50 of cAMP production, transiently transfected HEK293 cells [6]: 52 pM | EC50 of cAMP production, transiently transfected HEK293 cells [7]: 11 pM | EC50 of cAMP production, transiently transfected HEK293 cells [8]: 44 pM | EC50 of cAMP production, transiently transfected HEK293 cells [9]: 5.5 pM | EC50 of cAMP production, transiently transfected HEK293 cells [10]: 36 pM | EC50 of cAMP production, transiently transfected HEK293 cells [11]: 25 pM | EC50 of cAMP production, transiently transfected HEK293 cells [12]: 6.8 pM | IC50 [13]: 0.48 nM | IC50 [14]: 0.44 nM | IC50 [15]: 1.6 nM | IC50 [16]: 0.45 nM | IC50 [17]: 0.33 nM | IC50 [18]: 5.4 nM | IC50 [19]: 5.2 nM | IC50 [20]: 1.2 nM | IC50 [21]: 0.76 nM | IC50 [22]: 0.98 nM | IC50 [23]: 1.8 nM | IC50 [24]: 0.82 nM
